Results on two molecules are retold here after patent US20070027082A1 (UNIVERSITY OF TENNESSEE RESEARCH FOUNDATION, published 2007).

Assay [1] has as its target T1, type I IL-1 receptor on murine EL4 6.1 cells (murine) (UniProt P13504).
T1 sequence (looked up): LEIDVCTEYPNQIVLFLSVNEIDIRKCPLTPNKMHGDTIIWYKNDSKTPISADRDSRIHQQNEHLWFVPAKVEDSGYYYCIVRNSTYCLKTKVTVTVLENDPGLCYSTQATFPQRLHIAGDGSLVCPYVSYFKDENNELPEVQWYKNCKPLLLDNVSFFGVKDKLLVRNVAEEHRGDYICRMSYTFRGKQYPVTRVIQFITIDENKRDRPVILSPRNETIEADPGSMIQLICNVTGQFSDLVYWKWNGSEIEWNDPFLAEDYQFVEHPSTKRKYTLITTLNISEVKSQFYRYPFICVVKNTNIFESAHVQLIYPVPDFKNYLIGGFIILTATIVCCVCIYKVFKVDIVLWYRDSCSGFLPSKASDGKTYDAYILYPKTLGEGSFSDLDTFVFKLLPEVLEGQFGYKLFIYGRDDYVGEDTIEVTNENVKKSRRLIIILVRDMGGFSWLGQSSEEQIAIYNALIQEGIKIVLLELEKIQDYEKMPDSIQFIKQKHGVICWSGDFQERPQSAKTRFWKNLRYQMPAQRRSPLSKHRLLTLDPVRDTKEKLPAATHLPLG
Put plainly: competitive radioligand binding on EL4 6.1 cells, 100x excess of competitor.

Assay [2] has as its target T2, type I IL-1 receptor on murine EL4 6.1 cells (murine, UniProt P13504 20-576).
T2 construct: whole, on cells; Endogenous receptor on the murine T cell line EL4 6.1; also called type I IL-1Rs; IL-1 receptors on murine EL4 6.1 cells
T2 sequence (looked up): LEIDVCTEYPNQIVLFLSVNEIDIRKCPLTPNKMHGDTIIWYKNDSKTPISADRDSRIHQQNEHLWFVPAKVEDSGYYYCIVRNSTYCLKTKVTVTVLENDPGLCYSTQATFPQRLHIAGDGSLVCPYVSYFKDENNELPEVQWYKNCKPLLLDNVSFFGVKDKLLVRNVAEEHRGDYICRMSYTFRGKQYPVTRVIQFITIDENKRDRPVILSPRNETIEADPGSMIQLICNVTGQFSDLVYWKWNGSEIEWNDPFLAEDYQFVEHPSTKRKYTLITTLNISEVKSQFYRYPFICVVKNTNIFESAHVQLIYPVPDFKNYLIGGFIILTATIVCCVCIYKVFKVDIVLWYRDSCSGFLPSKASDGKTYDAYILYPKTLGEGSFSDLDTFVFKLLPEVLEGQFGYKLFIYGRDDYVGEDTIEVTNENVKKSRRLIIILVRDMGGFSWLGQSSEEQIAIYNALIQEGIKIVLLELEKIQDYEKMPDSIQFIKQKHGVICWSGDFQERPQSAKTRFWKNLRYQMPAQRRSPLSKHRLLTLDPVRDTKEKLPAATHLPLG
Put plainly: competition with [125I] IL-1 beta for type I IL-1R on EL4 6.1 cells. The method, then: IL-1 beta for binding to type I IL-1 receptors on murine cells. EL46.1 cells were incubated at 4° C. in presence of the sodium azide for 2 hr with and without each of the IL-1ra peptides or with soluble human recombinant interleukin Ira (shrIL-1ra) as a control. Cells were then incubated with [¹²⁵I]hrIL-1, transferred to microfuge tubes containing phthalolate oil, centrifuged and free and bound radioactivity determined. Non-specific binding was determined in the presence of 100× excess concentration of cold hrIL-1 beta.

Where only a bound is given, the exact number is not on record here.

Molecule “soluble human recombinant interleukin 1ra (shrIL-1ra) (from UniProt P18510 26-177) (ligand)” gave a displacement of [125I] IL-1 beta in assay [1] of over 90%.

B1: IL-1ra peptide 1-35 (SEQ ID NO: 13) (peptide)
peptide: RPSGRKSSKMQAFRIWDVNQKTFYLRNNQLVAGYL
notes: Synthetic peptide representing part of the processed/mature form of human sIL-1ra; also called IL-1ra 1-35; amino terminal IL-1ra peptide
On to B1, for which, in assay [2], the binding result is “no binding”.
